# In paper PMC4386032:
# Molecular target: F-actin (source not stated for this experiment: rabbit muscle or yeast) (not stated (rabbit muscle or yeast actin purified)) (UniProt P68135)
# Sequence of Vps1 (yeast dynamin), wild type, recombinant His tag fusion (P21576 whole entry, the tested form may be a part): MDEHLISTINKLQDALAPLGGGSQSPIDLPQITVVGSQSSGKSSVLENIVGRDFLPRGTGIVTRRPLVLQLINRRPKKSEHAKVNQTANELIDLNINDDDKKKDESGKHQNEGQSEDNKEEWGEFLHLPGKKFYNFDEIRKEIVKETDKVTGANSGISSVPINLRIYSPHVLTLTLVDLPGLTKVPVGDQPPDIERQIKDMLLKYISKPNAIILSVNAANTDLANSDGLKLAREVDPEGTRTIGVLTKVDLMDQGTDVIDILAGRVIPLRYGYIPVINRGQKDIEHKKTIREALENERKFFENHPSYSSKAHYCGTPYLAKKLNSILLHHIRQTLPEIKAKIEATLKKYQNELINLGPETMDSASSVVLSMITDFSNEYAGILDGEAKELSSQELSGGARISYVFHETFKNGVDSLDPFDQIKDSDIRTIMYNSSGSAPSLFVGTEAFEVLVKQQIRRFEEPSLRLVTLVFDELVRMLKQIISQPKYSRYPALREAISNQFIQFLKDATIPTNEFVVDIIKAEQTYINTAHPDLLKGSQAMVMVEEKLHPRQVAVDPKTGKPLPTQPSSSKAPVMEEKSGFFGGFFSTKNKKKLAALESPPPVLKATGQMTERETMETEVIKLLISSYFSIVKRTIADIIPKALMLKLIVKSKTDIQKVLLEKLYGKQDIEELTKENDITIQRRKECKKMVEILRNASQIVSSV
EM: proportion of Vps1 structures that are double rings after incubation with actin [%],EM: proportion of actin in bundles of three or more filaments in the presence of Vps1 [%],EM: proportion of actin in bundles of two or more filaments in the presence of Vps1 (23% without) [%],EM: proportion of actin filaments in bundles of three or more in the presence of Vps1 RR-EE [%],Substance
55,58,> 80,–,"Vps1 (yeast dynamin), wild type, recombinant His tag fusion (from UniProt P21576 1-704) (natural protein)"
–,–,–,8,"Vps1 RR457,458EE, recombinant His tag fusion (from UniProt P21576 1-704) (natural protein)"
